In paper PMC11014345, “Lethal perturbation of an Escherichia coli regulatory network is triggered by a restriction-modification system's regulator and can be mitigated by excision of the cryptic prophage Rac” (Nucleic Acids Research, 2023):

Target: the molecule itself
Assay: SEC; Superdex 75 10/300 GL, 0.5 mg protein loaded, 50 mM potassium phosphate buffer pH 7.0, 150 mM NaCl, 0.5 ml/min; column calibrated with marker proteins; self-association of RacR (octamer)

B1: C-terminally-6His-tagged RacR repressor (natural protein, Escherichia coli K-12 (Rac prophage), UniProt P76062 1-158, looked up)
chain: MLSGKDLGRAIEQAINKKIASGSVKSKAEVARHFKVQPPSIYDWIKKGSISKDKLPELWRFFSDVVGPEHWGLNEYPIPTPTNSDTKSELLDINNLYQAASDEIRAIVAFLLSGNATEPDWVDHDVRAYIAAMEMKVGKYLKALESERKSQNITKTGT
notes: RacR repressor of the cryptic Rac prophage of Escherichia coli K-12; predicted size of the 6His-tagged monomer 18.5 kDa; not shown: 6His, C-terminal, kept
stoichiometry N: 8
